Where two headings read alike, the source gives them in different places.
Key:
[1] = target: HLA-DR1 (DRα1*0101/DRβ1*0101) refolded in the absence of peptide; assay: IC50 APL stability assay (peptide binding to DR1); settings: read off a plot
[2] = target: HLA-DR1 (DRα1*0101/DRβ1*0101) with the influenza hemagglutinin peptide HA306-318 (human | influenza virus); assay: SPR
[3] = target: HLA-DR1 (DRα1*0101/DRβ1*0101) with the influenza hemagglutinin peptide HA306-318 (human | influenza virus); assay: SPR; remark: listed apart in the source
[4] = target: HLA-DR4 (DRα1*0101/DRβ1*0401) with the influenza hemagglutinin peptide HA306-318 (human | influenza virus); assay: SPR
[5] = target: HLA-DR4 (DRα1*0101/DRβ1*0401) with the influenza hemagglutinin peptide HA306-318 (human | influenza virus); assay: SPR; remark: listed apart in the source
[6] = target: HLA-DR1 (DRα1*0101/DRβ1*0101) with the influenza hemagglutinin peptide HA306-318 (human | influenza virus); assay: SPR; remark: listed apart in the source
[7] = target: HLA-DR1 (DRα1*0101/DRβ1*0101) with the influenza hemagglutinin peptide HA306-318 (human | influenza virus); assay: SPR; remark: listed apart in the source
[8] = target: HLA-DR4 (DRα1*0101/DRβ1*0401) with the influenza hemagglutinin peptide HA306-318 (human | influenza virus); assay: SPR; remark: listed apart in the source
[9] = target: HLA-DR1 (DRα1*0101/DRβ1*0101) with the influenza hemagglutinin peptide HA306-318 (human | influenza virus); assay: SPR; remark: listed apart in the source
[10] = target: HLA-DR4 (DRα1*0101/DRβ1*0401) with the influenza hemagglutinin peptide HA306-318 (human | influenza virus); assay: SPR; remark: listed apart in the source
[11] = target: HLA-DR4 (DRα1*0101/DRβ1*0401) with the influenza hemagglutinin peptide HA306-318 (human | influenza virus); assay: SPR; remark: listed apart in the source

## HA306-318 peptide (wild-type HA) V309E
[1]; parent: est. 12
  IC50: 0.03 µM

## HA306-318 peptide (wild-type HA) V309R
[1]; parent: est. 12
  IC50: 0.021 µM

## HA306-318 peptide (wild-type HA) N312T
[1]; parent: est. 12
  IC50: 0.015 µM

## HA306-318 peptide (wild-type HA) N312F
[1]; parent: est. 12
  IC50: 0.006 µM

## HA306-318 peptide (wild-type HA) Y308A
[1]; parent: est. 13
  IC50: 22 µM

## HA306-318 peptide (wild-type HA) K315H
[1]; parent: est. 12
  IC50: 0.013 µM

## HA306-318 peptide (wild-type HA) N312K
[1]; parent: est. 12
  IC50: 0.018 µM

## HA306-318 peptide (wild-type HA) N312Q
[1]; parent: est. 12
  IC50: 0.011 µM

## HA1.7 TCR (soluble, extracellular variable and constant domains with an engineered disulphide link)
[2]
  Kd: 62 µM
[3]
  Kd: 28 µM
[4]
  Kd: 55 µM
[5]
  Kd: 48 µM
[6]
  Kd: 36 µM
[7]
  Kd: 204 µM
[8]
  Kd: 89 µM
[9]
  Kd: 531 µM
  dH: 18 kcal/mol
[10]
  Kd: 1270 µM
  dH: 16 kcal/mol
[11]
  Kd: 291 µM

## HA306-318 peptide (wild-type HA) K310V
[1]; parent: est. 12
  IC50: 0.01 µM

## HA306-318 peptide (wild-type HA) K307S
[1]; parent: est. 12
  IC50: 0.022 µM

## HA306-318 peptide (wild-type HA) N312S
[1]; parent: est. 12
  IC50: 0.012 µM

## HA306-318 peptide (wild-type HA) K310F
[1]; parent: est. 12
  IC50: 0.008 µM
